Assay: soluble on expression in E. coli; label from the status in PepcDB or PDB records

| Sequence | soluble on expression in E. coli |
| --- | --- |
| MPLKAYRPPEDPGLWDTYLEWLERALKVAEAHPTTLEYLAHPKRLVTLSLPVVMDDGKVRIFQGYRVVHDIARGPAKGGVRLDPGVTLGQTAGLAAWMTLKAAVYDLPFGGAAGGIAVDPKGLSPQELERLVRRYTAELVGLIGPDSDILGPDLGADQQVMAWIMDTYSMTVGSTVPGVVTGKPHALGGSEGRDDAAGLGALLVLEALAKRRGLDLRGARVVVQGLGQVGAAVALHAERLGMRVVAVATSMGGMYAPEGLDVAEVLSTYEATGFLPRLDLAPEEVFGLEAEVLVLAAREGALDGDRARQVQAQAVVKVANFGLTPEAEAYLLGKGALVVPDLLSGGGGLLASYLEWVQDLNMFFWSPEEVRERFETRVARVVDAVCRRAERGGLDLRMGALALALERLDEATRLRGVYP | soluble |
| MTRMLPEPAYRHGSVGKIGVLMINLGTPDAPTAKALRAYLKQFLSEPRIVEFPRWLWWFILNGIILNVRPAKSAKKYEQIWTSEGSPLRVHTARQTALVAALLEQQADSSLVVEYAMIIGNPSIAEKLQQMKVQGCDRILVLPLFPQYAASSTGCVLDGVFSELRKMRNIPDIRTVRHYHDDPGYIAALAQNVRDYWEKHGQPDKLIISFHGVPRKTLEMGDPYHCECQKTGRLLAEALELADDRYQICFQSRFGFAQWLGPYTAEILAELGKQKTGRVDVVCPGFVSDCLETLEEIALEGKAIFTEAGGGEFHYIPSLNEHPLWIEAIGNIIQTHLTGWADRRLSEEAAERSRKRALALGARE | not soluble |
| SASRGKTETSKLKQNLEEQLDRLMQQLQDLEECREELDTDEYEETKKETLEQLSEFNDSLKKIMSGNMTLVDELSGMQLAIQAAISQAFKTPEVIRLFAKKQPGQLRTRLAEMDRDLMVGKLERDLYTQQKVEILTALRKLGEKLTADDEAFLSANAGAILSQFEKVSTDLGSGDKILALASFEVEKTKK | soluble |
| MSLLREKAVPIRIPDQLPASDVLRNENIFVMSESRASTQEIRPLKVLLLNLMPKKIETETQFLRLLSNSPLQVDIELLRIDDRPSKNTPEEHLNTFYRQFELVKNRNFDGLIITGAPLGLVQFEDVAYWQHLQNIMAWAKAHVTSTLYICWAAQAGLKLLYNLPKRTREEKLSGVYYHDIHKPFHPLLRGFDDRFLAPHSRYADFDAEFLAEHTDLDILATSDVAGVYLAATKDKRNVFVTGHPEYDAYTLHGEYVRDLGEGLNPAIPVNYYPNDNPDNKPCASWRSHGHLLFANWLNYCVYQQTPYDLEKFSEANFTKDEEGHHHHHH | soluble |
| MAEEQQNSDQSNGGNVIPTPEEVATFLHKTVEEGGWEKCWEEEITPWDQGRATPLIVHLVDTSSLPLGRALVPGCGGGHDVVAMASPERFVVGLDISESALAKANETYGSSPKAEYFSFVKEDVFTWRPTELFDLIFDYVFFCAIEPEMRPAWAKSMYELLKPDGELITLMYPITDHVGGPPYKVDVSTFEEVLVPIGFKAVSVEENPHAIPTRKGKEKLGRWKKIN | not soluble |
| MLTRVPVLILAVIVMLALCQEPEKPEKRPALLSRYGRAVLPRYGKRSGNLMESSQNSLTEESSDVVCQLIDGKYICLPVDAGFLGEVNGSIKQNSKTKCPAFFKNVSFSLFFRAFYLTVPACTSKKNVLLTSTTSTINHQKLEPATTLSPIRQRRRCLFQIDFAYLTVCPSKCQEGTDTGKVADYLLSLGCSDMDVIEREMKRVCCPE | not soluble |
| GPGSMSTMAASRSDTPAPVHEMSMERLRREYVSLKSTSYSLTVEESHLIRKIETLREESVRAVLNAEMKEEQVSNQLFRRLDGAEREVQRYQALLKEEESEAESLSGRIKEMRSQQTEVENALEERQEYLLMNLQRKLLDMARKKTAVEQELMAERQKYLDVLVTRLNMLRGRGVGSSTESSVTIHSQPSPAEANTVPVAKHLDVPLPTTAAPHISTPLLRTGVPLGDNHGMLPAEKPLREDAHTDAGLPLPFVLSPAISAQKKPKDGVIVNASRGNTSSTSGRLSASTTPLSADLTPRSSHSSETHHAVVALERKLNQLLLEQAAAMQRTSATEKQCAVLTAKLHAVQEATFLDRARASKMKEELEKARARLSEVKARDRSGIPFSPLDDTSVMSGSNASFDNSSPLVLSSLSLRERTRELLSSVPQPNANERPC | not soluble |
| KGLSADKKYFETRVNPTSVFWTGGKWKERLVQIMSQTQEQDILKFLKQTASPAMHELQRELSEEYGLSVRVDKMFHRDEPAIEFVIRKETMRDFMYGIKSVGQDVSDQLINDGKLPHIRHQTTYKPYAYFFDGRVGYDVQYMNKDELIADILKNYERYLMLLDDVGQELMAHEQVELAE | not soluble |

From the DeepSol protein solubility set
